Source: patent US20140087995A1 (published 2014)
Like-named read-outs stand apart in the source and are kept apart here. Numbered stars: 1 amine (or outer) side, 2 acyl side, 3 side chain; on linkers, the order of the positions; unused ones are H or OH. Bridge positions count the residues as written; N and C are the ends. Side chains are listed from the residue outwards. Ends that are not written are not given here. * marks the point of attachment. C20 diacid = O=C(O)CCCCCCCCCCCCCCCCCCC(=O)*; γGlu = O=C(O)[C@H](CCC(=O)[*:2])N[*:1]

T1: human amylin receptor (amylin 3(a) receptor: human calcitonin receptor plus RAMP-3) (human, UniProt P30988 25-474; O60896 24-148, limits assumed)
T1 sequence (looked up) 1: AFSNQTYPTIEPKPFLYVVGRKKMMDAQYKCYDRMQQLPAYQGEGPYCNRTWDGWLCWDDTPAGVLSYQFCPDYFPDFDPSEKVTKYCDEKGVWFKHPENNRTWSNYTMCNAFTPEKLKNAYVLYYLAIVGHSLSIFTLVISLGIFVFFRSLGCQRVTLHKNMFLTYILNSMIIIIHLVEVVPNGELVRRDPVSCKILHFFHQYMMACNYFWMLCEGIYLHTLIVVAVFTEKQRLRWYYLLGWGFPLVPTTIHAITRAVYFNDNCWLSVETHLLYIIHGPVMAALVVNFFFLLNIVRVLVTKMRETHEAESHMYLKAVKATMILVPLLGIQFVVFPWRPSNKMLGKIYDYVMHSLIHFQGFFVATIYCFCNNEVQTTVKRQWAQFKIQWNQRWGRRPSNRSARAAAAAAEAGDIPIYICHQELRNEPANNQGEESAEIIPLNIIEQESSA
T1 sequence (looked up) 2: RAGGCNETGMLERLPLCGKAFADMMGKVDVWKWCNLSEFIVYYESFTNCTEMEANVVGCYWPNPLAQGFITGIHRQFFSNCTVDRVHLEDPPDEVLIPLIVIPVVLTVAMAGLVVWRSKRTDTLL

T2: human calcitonin receptor (human, UniProt P30988 25-474)
T2 sequence (looked up): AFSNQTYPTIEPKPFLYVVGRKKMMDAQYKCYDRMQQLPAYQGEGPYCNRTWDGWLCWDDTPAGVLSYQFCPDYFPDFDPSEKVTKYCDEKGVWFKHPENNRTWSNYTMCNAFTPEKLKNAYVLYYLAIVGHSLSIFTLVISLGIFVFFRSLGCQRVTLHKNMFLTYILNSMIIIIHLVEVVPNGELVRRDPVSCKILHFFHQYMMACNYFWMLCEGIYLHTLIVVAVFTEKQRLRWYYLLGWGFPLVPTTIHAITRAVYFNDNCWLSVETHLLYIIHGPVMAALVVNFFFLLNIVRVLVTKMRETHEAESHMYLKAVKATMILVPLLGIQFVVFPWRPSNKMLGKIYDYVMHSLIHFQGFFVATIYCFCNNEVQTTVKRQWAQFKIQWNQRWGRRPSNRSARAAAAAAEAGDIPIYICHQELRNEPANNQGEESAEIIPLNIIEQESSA

T3: human calcitonin receptor (human, UniProt P30988 25-474)
T3 sequence (looked up): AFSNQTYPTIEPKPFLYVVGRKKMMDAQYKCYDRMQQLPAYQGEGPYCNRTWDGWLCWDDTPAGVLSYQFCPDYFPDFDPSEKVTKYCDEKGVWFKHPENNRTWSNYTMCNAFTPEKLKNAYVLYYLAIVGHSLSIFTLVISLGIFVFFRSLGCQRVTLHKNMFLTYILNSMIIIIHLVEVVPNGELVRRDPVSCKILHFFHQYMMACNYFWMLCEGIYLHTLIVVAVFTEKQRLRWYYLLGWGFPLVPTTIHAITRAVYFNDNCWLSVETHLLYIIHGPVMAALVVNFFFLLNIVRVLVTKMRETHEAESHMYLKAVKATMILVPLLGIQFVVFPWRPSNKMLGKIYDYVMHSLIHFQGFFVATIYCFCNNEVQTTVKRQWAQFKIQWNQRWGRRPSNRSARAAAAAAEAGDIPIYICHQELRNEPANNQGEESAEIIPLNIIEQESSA


Tests used:
Assay in all cases: cell-based or functional assay
[1] = molecular target: T1, human amylin receptor (amylin 3(a) …)
[2] = molecular target: T2, human calcitonin receptor
[3] = molecular target: T3, human calcitonin receptor; remark: listed apart in the source

| Binder | Ratio hCT/hAmylin funct. [1] | hAmylin-R funct. EC50 [1] | hCTR funct. EC50 [2] | hCTR funct. EC50 [3] |
| --- | --- | --- | --- | --- |
| KCNTATCATQRLANFLRHSSPNFGAIPSSTNVGHNTY (C20 diacid-gGlu on the alpha amino group of the N-terminal residue; disulfide bridge Cys2-Cys7; C-terminal amide, Synthetic acylated analogue of human amylin; also called compound 40) [N^α1-[(4S)-4-carboxy-4-(19-carboxynonadecanoylamino)butanoyl]-[Arg17,Pro21,Pro27,His34]-h-amylin] | 16.4 ratio | 0.164 nM | 2.68 nM |  |
| KCNTATCATQRLAEFLRHSSPNFGAIPSSTNVGSNTY (C20 diacid-gGlu-2xOEG on the alpha amino group of the N-terminal residue; disulfide bridge Cys2-Cys7; C-terminal amide, Synthetic acylated analogue of human amylin; also called compound 19) | 17.4 ratio | 0.307 nM | 5.32 nM |  |
| KCNTATCATQRLANFLRHSSPNFGAIPSSTNVGSKTY (C20 diacid-gGlu on the alpha amino group of the N-terminal residue; disulfide bridge Cys2-Cys7; C-terminal amide, Synthetic acylated analogue of human amylin; also called compound 34) [N^α1-[(4S)-4-carboxy-4-(19-carboxynonadecanoylamino)butanoyl]-[Arg17,Pro21,Pro27,Lys35]-h-amylin] | 8.4 ratio | 0.313 nM | 2.62 nM |  |
| KCNTATCATQRLANFLRHSSPNFGAIPSSTNVGSETY (C20 diacid-gGlu on the alpha amino group of the N-terminal residue; disulfide bridge Cys2-Cys7; C-terminal amide, Synthetic acylated analogue of human amylin; also called compound 23) [N^α1-[(4S)-4-carboxy-4-(19-carboxynonadecanoylamino)butanoyl]-[Arg17,Pro21,Pro27,Glu35]-h-amylin] | 8.9 ratio | 0.34 nM | 3.02 nM |  |
| K([γGlu-C20 diacid])CNTATCATQRLANFLRHSSPNFGAIPSSTNVGSNTY-NH2 (disulfide 2-7; N-terminus assumed; SMILES CC[C@H](C)[C@H](NC(=O)[C@H](C)NC(=O)CNC(=O)[C@H](Cc1ccccc1)NC(=O)[C@H](CC(N)=O)NC(=O)[C@@H]1CCCN1C(=O)[C@H](CO)NC(=O)[C@H](CO)NC(=O)[C@H](Cc1c[nH]cn1)NC(=O)[C@H](CCCNC(=N)N)NC(=O)[C@H](CC(C)C)NC(=O)[C@H](Cc1ccccc1)NC(=O)[C@H](CC(N)=O)NC(=O)[C@H](C)NC(=O)[C@H](CC(C)C)NC(=O)[C@H](CCCNC(=N)N)NC(=O)[C@H](CCC(N)=O)NC(=O)[C@@H](NC(=O)[C@H](C)NC(=O)[C@@H]1CSSC[C@H](NC(=O)[C@@H](N)CCCCNC(=O)CC[C@H](NC(=O)CCCCCCCCCCCCCCCCCCC(=O)O)C(=O)O)C(=O)N[C@@H](CC(N)=O)C(=O)N[C@@H]([C@@H](C)O)C(=O)N[C@@H](C)C(=O)N[C@@H]([C@@H](C)O)C(=O)N1)[C@@H](C)O)C(=O)N1CCC[C@H]1C(=O)N[C@@H](CO)C(=O)N[C@@H](CO)C(=O)N[C@H](C(=O)N[C@@H](CC(N)=O)C(=O)N[C@H](C(=O)NCC(=O)N[C@@H](CO)C(=O)N[C@@H](CC(N)=O)C(=O)N[C@H](C(=O)N[C@@H](Cc1ccc(O)cc1)C(N)=O)[C@@H](C)O)C(C)C)[C@@H](C)O, h-amylin derivative; disulfide bridge and C-terminal amide as told for human amylin; also called compound 48) [N^ε1-[(4S)-4-carboxy-4-(19-carboxynonadecanoylamino)butanoyl]-[Arg17,Pro21,Pro27]-h-amylin] |  |  |  | 1.97 nM |
